In this assay the target is FXR1-CFP (human). The assay can be described thus: FRET or BRET.
Chain of SFPQ-YFP (natural protein) (P23246 whole entry): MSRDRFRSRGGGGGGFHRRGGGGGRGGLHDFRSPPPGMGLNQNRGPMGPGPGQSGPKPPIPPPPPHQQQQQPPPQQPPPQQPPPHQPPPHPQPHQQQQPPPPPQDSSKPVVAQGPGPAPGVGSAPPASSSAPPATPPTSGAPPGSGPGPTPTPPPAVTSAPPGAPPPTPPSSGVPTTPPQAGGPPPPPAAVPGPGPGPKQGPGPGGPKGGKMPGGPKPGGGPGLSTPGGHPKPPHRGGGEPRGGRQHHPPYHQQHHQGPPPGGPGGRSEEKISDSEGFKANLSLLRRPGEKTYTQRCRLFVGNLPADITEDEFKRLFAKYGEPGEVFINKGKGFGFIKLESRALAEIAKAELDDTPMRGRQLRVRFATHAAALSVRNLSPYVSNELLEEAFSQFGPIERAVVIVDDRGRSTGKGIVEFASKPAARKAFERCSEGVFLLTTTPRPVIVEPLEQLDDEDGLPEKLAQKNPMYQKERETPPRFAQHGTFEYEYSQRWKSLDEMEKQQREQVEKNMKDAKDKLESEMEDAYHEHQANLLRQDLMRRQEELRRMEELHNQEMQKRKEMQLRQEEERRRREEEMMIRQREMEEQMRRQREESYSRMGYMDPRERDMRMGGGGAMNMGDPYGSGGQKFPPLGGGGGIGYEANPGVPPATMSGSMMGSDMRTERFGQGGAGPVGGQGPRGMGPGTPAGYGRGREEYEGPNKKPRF
Chain of YFP-FXR2_(14-399) (P51116 14-399): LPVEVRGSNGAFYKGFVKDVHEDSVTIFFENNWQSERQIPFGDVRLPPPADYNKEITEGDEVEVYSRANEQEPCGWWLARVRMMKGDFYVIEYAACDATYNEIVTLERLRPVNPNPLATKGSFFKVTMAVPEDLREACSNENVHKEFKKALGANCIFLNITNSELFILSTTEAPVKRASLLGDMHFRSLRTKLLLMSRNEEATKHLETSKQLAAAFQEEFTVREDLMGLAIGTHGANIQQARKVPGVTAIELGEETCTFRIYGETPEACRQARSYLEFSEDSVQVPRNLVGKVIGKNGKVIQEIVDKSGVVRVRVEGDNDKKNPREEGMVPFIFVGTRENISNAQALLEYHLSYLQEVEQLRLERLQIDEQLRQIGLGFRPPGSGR
Chain of FXR1-CFP (natural protein) (P51114 2-621): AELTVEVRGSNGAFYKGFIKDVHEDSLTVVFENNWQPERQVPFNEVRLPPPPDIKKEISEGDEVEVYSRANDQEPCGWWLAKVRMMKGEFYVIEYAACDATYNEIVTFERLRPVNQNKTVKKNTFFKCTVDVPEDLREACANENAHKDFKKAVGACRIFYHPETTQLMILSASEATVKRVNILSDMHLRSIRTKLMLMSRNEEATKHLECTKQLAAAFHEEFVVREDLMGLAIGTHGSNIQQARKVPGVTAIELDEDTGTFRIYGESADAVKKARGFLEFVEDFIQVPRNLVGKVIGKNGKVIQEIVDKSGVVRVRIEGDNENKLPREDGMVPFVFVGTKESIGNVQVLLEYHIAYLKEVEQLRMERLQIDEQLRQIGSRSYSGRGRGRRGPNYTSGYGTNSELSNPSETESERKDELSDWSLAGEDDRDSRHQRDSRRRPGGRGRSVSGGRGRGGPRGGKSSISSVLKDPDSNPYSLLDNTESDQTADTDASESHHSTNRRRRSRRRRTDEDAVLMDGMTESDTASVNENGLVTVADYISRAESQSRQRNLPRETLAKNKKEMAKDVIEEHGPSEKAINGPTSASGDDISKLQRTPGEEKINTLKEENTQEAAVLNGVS
Consider FXR1-CFP (natural protein), for which the FRET efficiency stood at 8.9%.
Substance SFPQ-YFP (natural protein) registered an FRET efficiency of 9.1%.
The same measure for “YFP-FMRP_(1-380) (from UniProt Q06787 1-380) (domain or fragment)”: 9.7%.
For “YFP-FXR2_(14-399) (from UniProt P51116 14-399) (domain or fragment)”, the FRET efficiency was found to be 8.3%.

For the origin of these results see paper PMC12118398.
